Results as given in the nanobody polyreactivity screen of Harvey et al. (2022).

Assay: yeast display, Sf9 membrane polyspecificity reagent, FACS + sequencing; frameworks hold sequencing errors
Summary of the method: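 Galactose induction of a Saccharomyces cerevisiae BJ5465 synthetic nanobody display library ran 36–48 hours. The cells were then stained for 1 hour at 4 °C with 10% biotinylated, detergent-solubilized Sf9 membrane reagent, pulled down on streptavidin microbeads and FACS-sorted into low and high (top ~1%) gates on expression and reagent-binding fluorescence. Labels for polyreactivity follow the gate of origin.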

Row | Sequence | polyreactivity (PSR sort gate)
1 | QVQHVESVGGLVQAGGTLRLSCSASGQIFEPYAMGWYRQAPGKERELVAAINSGGSTNYADSVKGRFTISRDNAKNTVYLQMNSLKPEDTAVYYCNKGQNIRQSPGDYWGLGTQVTVSS | low polyreactivity
2 | QVQLGESGGGLVQAGGSLRLSCAASGRTCWPYARGWYRQAPGKEMELVAAISRGDRTHYADSVKGRFTISRDNAKKTVYLQMNSLIPEVTAVFYCAADSRYYYYVYKISGDYDSWGQGTHVTVSS | low polyreactivity
3 | QVHLVESGGGLVQAGGSLRLSCAASGIILYRNAMGWYRQAPGKERELVAAITNTGSRTYYADSVKGRFTISRDNAKNTVYLQMTSLKPEDTAVYYCAAYYYYSAYGDDYWGQGTQVTVSS | high polyreactivity
4 | QVQLVESGGGLVQAGGSLRLSCAASGRTFTPYAMGWYRQAPGKERELVAAINSDGSTNYADSVKGRFTISRDNAKNTVYLQMNSLKPEDTAVYYCAAGYSLEGDYWGQGTQVTVSS | low polyreactivity
5 | QVQLVESGGGLVQAGGSLRLSCAASGRIFPSNAMGWYRQAPGKERELVAAISFSGGSTYYADSVKGRFTISRDNAKNTVYLQMNSLKPEDTAVYYCAKSGVVDWGQGTQVTVSS | low polyreactivity
6 | QVQLVESGGGLVQAAGSLRLSCAASGITFRWYAMGWYRQAPGKERELVAAITYRGGSTHYEDSVKGRFTISRDNAKTSVYLQMNSLKPEDTAVYYCAVRRWPRYRWSDYWGKGTQVTVSS | low polyreactivity
7 | QVQLVESGGGLVQAGRTLRLSCAASGFIFFDNAMGWYRQAPGKERELVAVISSSGTSTYYADAVKGRFTISRDNAKNTVYLQMNSLKPDDTAVYYCNATARTGVYLESDYWGQGTQVTVSS | low polyreactivity
8 | QVQLVESGGGLVQAGGSLRLSCAASGFISPPYAMGWYRQAPGKERELVAAIRSSGGSTYYADSVKGRFTISRDNAKNTVYLQMNSLKPEDTAVYYCNADWIYISSYGWYSYDYWGQGTQVTLSS | high polyreactivity
9 | QVQLVESVGGLVQAGGSLSLSCAASVFGRYAMGWYRPAPGKERELVARIYSSGGSTHYADSVKGRFTISRDNAKNTVYLQMNSLKPEDTAVYYCATGSTRWGCYYYWGQGTQVTVSS | high polyreactivity
10 | QVQLVESGGGLVQAGGSLRLSCAASGRIIGYNAMGWYRQAPGKERELVASIRYSGGSTYYADSVKGRFTISRDNAKNTVYLQMNSLKPEDTAVYYCATRVTYRRRFDYWGQGTQVTVSS | high polyreactivity
11 | QVQLVESGGGLVQAGGSLRLSCAASGSIINRYAKGWYRQAPGKERELVAAITQSGGRTYYADSVKGRFTISRDNAKNTVYLQMNSLNPEDTAVYYCNAVRWYLYDYWGQGTQVTVSS | high polyreactivity
12 | QVQLVESGGGLVQAGGILRLSCADSGSTFIGYAMGWYRQAPRKERELFAAISKSGGSTYYADSVKGRFTISRDNAKNTVYLQMNSLKPEDTAVYYCIVDTSRYVSWNDYWGQGTQVTVSS | high polyreactivity
13 | QVQLVESGGGLVQAGGSLRLSCAASGNIFAWYAMGGYRQAPGKERELVADISSRGGSTYYADSVKGRFTISRDNAKNTVYLQMNSLKPEDTAVYYCAAVWYWTQDYDYWGQGTQVTVSS | low polyreactivity
14 | QVQLVESGGGLVQAGGSLRLSCAASGNTFFYYAMGWYRQAPGKERELVAAINRSGGSTYYADSVKGRFTISRDNAKNTVYLQMNSLKPEDTAVYYCARVLPGGWKSRISDYWGQGTQVTVSS | low polyreactivity
15 | QVQLVESGGGLVQAGGSLRLSCAASGSTFDGYAMGWYRQAPGKERELVAAITSSSTSTYYADSVKGRFTISRDNAKNTVYLQMYSLKPEDTAVYYCAAQYFSYISVYSFYTMGYWGQGTQVTVSS | low polyreactivity
16 | QVQLVESGGGLVQAGGSLRLSCAASGSTFGGYAMGWYRQAPGKERELVAAISNGDRTNYADSVKGRFTISRDNAKNTVYLQMNSLKPEDTAVYYCATQPLTWSSYRWDWRAQFDHWGQGTQVTVSS | low polyreactivity

Row | Sequence | polyreactivity (PSR sort gate)
17 | QVLLVESGGGLVQAGGSLRLSCAASGSTFSQYAMGWNRQAPGKERELVAAIDSGSNTKYADSVKGRFTISRDHAKNTVYLQMNSLKPEDTAVYYCAADDSYRSIGGDYWGQGTQVTVSS | low polyreactivity
18 | QVQLVESGGGLVQAGGSLRLSCAASGGIFRGYAMGWYRQAPGKERELVATSRSSGRTNYADSVKGRFTISRDNAKNTVYLQMNSLKPEDTAVYFCNKRRWWQYDSWGDWVLGGDDYWGQGTQVTVSS | low polyreactivity
19 | QVQLVESGGRLVQAGGSLRLSCAASGFIFAYNAMGWYRQAPGKERELVAAISWSGGSTYYADSVKGRFTISRDNAKNTVYLQMNSLKPEDTAVSYCNKYIRYPFKRYGYWGQGTQVTVSS | high polyreactivity
20 | QVQLVESGGGLVQAGGSLRLSCAASGSIFWGNDMGWYRQAPGKERELVAGIRNSGTSTYYADSVKGRFTISRDNAKNTVYVQMNSLKPEDTAVYDCAAADGRQYSRYYWRGHDYWGQGTQVTVSS | low polyreactivity
21 | QVQLVESGGGLVQAGGSIRSSCAASGRTFGSNAMGWSRQAPGKERELVAAISSTVSTNYADSVKGRFTISRDNAKNTVYLQMNSLKPEDTAVYYCNVTRHYSYVSEYDYWGQGTQVTVSS | low polyreactivity
22 | QVQLVESGGGLVQAGGSLRLSCAASGSTFPTNAMGWYRQAPGKERELVAAISQRGDSTSYADSVKGRFTISRDNAKNTVYLQMNSLKPEDTAVYYCAARPLYSYSQWGYGYWGQGTQVTVSS | high polyreactivity
23 | QVQLVESGGGLVQAGGSLRLSCAASGSISRFYAMGWYRQAPGKERELVAAISWSGGRPYYADSVKGRFTISRDKAKNTVYLQMNSLKPEDTAVYYCNAYRRYNDEDYWGQGTQVTVSS | high polyreactivity
24 | QVQLVESGGGLVQAGGSLRLICAASGRIFVPYVMGWYRQAPGKERELVASISDSDTSTYYADSVKGRFTISRDNAKNTVYLQMNSVKPEDTAVYYCNVDYWGQGTQVTVSS | low polyreactivity
25 | QVQLVESGGGLVQAGGRLRLTCAASGSIFGSYAMGWYRQEPGIERELVAAIRGRGGNTYYADSVKGRFTISRDNAKNTVYLQMNSLKPQDTAVYYCAAQSFAQYGWRYGYWGQGTQVTLSS | high polyreactivity
26 | QVQLVESGGGLVQAGGSLRLSCAASGSIFGQYVMGWYRQAPGKERELVAAITRRGGTTYYADSVKGRFTISRDNAKNTVYLQMNSLKPEDTAVYYCAARVRVPQTARLHEYWGQGTQVTVSS | high polyreactivity
27 | QVQLVESGGGLVQAGGSLRLSCAASGIIIVRYAMGWYRQAPGKERELVAAISRRGGSTYYADSVKGRFTISRDNAKNTVSLQMNSLKPEDTAVYYCAALLGDITGYDYWGQGTQVTVSS | high polyreactivity
28 | QVQLVESGGGLVQAGGSLRLSCAASGFTFVYYAMGWYRQAPGKERELVATISGHGGRTYYADSVKGRFTISRDNAKNTVYLQMNSLKPEDTAVYYCAALLYIRSVGYDYWGQGTQVTVSS | low polyreactivity
29 | QVQLVESGGGLVQAGGILRLSCAASGRIFSRYVMGWYRQAPGKEREFVASITWSGSSTYYADSVKGRFTISRDNAKNTVYLQMNSLKPEDTAVYYCAALGLLSPSPWGTHISEYDSWGQGTQVTVSS | low polyreactivity
30 | QVQLVESGGGLVQAGGSLRLSCAASGRIFSYYDMGWYRQAPGKERELVARISYSGDSTYYADSVKGRFTISRDNAKNTVYLQMNSLKPEDTAVYYCADEVDSGYSEYYWGQGTQVTVSS | low polyreactivity
31 | QVQLQESGGGLVQAGGSLRLSCAASGIIVDADIMGWYRQAPGQERDLVASITDGGRTNYADSVKGRFTISRDNAKNTVYLQMNSLKPEDTAVYYCAAIAYPDIPTYFDYDSEYFYCGQGTQVTVSS | low polyreactivity
32 | QVQLVESGGGLVQAGGSLRLSCAASGLIFGGYAMGWYRQAPGKERELVAAIYWDDGDTYYADSVKGRFTISRDNAKNTVYLQMNSLKTEDTAVYYCNAAGALIFGEGYYVEYDYDYWGQGTQVTVSS | low polyreactivity
